Measured values published in patent publication US20240182556A1 (OPSIDIO, published 2024).

T1: exon 6 peptide (ASSLRNDSSSSNRKAKNPPGDS), coated on ELISA plate (not fully specified)
T1 construct: No biotin is mentioned for the ELISA coat; also called a peptide of SCF248
T1 peptide: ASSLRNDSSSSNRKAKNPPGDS

T2: PE9413, C-terminal biotinylated peptide mapping on Exon6 of the SCF molecule (SCF248) (C-terminal biotin)
T2 construct: also called C-terminal biotinylated PE9413; C-ter PE9413
T2 peptide: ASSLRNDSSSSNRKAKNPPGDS


Legend:
[1] = molecular target: human SCF248 (stem cell factor 248 isoform) expressed on mouse SI/SI4 cells (human), P21583; assay: cell-based or functional assay
Chain of human SCF248 (stem cell factor 248 isoform) expressed on mouse SI/SI4 cells (human), P21583 (P21583 26-273): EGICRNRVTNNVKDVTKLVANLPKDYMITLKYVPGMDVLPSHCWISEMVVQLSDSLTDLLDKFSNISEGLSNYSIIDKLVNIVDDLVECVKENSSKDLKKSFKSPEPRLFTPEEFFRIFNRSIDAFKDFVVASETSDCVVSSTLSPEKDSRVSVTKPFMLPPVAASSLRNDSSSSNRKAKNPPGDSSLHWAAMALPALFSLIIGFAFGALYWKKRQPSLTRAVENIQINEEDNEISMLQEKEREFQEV

[2] = molecular target: T1, exon 6 peptide …; assay: direct ELISA on coated peptide, IgG4, read at 450 nm
Description: A direct enzyme-linked immunosorbent assay (ELISA) was performed to evaluate binding of the clones of Example 2 (referred to in all additional examples as “mutants”) to the Exon 6 peptide. The mutants were expressed as full length IgG4 antibodies.
The plate was incubated at 4° C. overnight. […] Both plates were washed with wash buffer twice. Then, the plates were blocked with blocking buffer for 1 hour at 37° C. The plates were then washed with wash buffer twice. […] The plate was covered and incubated for 1 hour at 37° C. The plates were then washed with wash buffer three times. The secondary antibody was added to the plates. The plates were covered and incubated for 1 hour at 37° C. The plates were then washed with wash buffer three times. 100 μL of detection substrate was added to each well of the plates. The plates were covered and incubated for 10-20 minutes at room temperature. Subsequently, 100 μL of stop solution was added to the plates. Each plate was read at an absorbance of 450 nm.
Reagents: Coating buffer contained 1.5M NaCl, 0.5M […], and 1.0N NaOH. Wash buffer contained 0.05% Tween-20 in PBS. Blocking buffer contained 2.0% normal goat serum in wash buffer. The dilution buffer was wash buffer and 2% FCS. The secondary antibody was a goat anti-human IgG HRP conjugate, purchased from Millipore (Catalogue Number: AP309P). The secondary antibody was diluted 1:1000. The detection substrate was prepared by dissolving 4 O-phenylenediamine dihydrochloride (OPD) tablets dissolved in 12 mL sterile distilled water. 5 μL of hydrogen peroxide (30% v/v) was added to the detection substrate immediately before adding substrate to the wells. The stop solution contained 0.5 M H₂SO₄.

[3] = molecular target: T2, PE9413, C-terminal biotinylated peptide …; assay: yeast-displayed scFv, flow cytometry titration of biotinylated peptide
Description: The binding of the selected 48 clones described above to 170 nM of C-terminal biotinylated PE9413 was evaluated. The 24 clones with the highest binding signal were further evaluated for binding affinity. Each clone was incubated with increasing amounts of biotinylated PE9413, and stained with a fluorescently labeled anti-streptavidin antibody. Binding of the clone to PE9413 was analyzed by flow cytometry. A plot of concentration of PE9413 versus the median fluorescent signal of the yeast cell population that bound to PE9413 was used to estimate the binding affinity (KD) of each clone to C-terminal biotinylated PE9413.

Binder	CCL2 Expression as Percentage of Positive Control [1] [%]	TGFβ Expression as Percentage of Positive Control [1] [%]	absorbance at 0.1 ng/mL antibody [2] [absorbance]	absorbance at 0.5 ng/mL antibody [2] [absorbance]	absorbance at 1 ng/mL antibody [2] [absorbance]	absorbance at 5 ng/mL antibody [2] [absorbance]	absorbance at 100 ng/mL antibody [2] [absorbance]	absorbance at 1000 ng/mL antibody [2] [absorbance]	Kd [3] [nM]
H74P mutant expressed as full length IgG4 antibody (antibody, V domains shown, Full length IgG4) VH: QVQLVQSGAELKKPGSSVKISCKSSGYAFSSQWMNWVKQRPGQGLEWIGQIYPEDGDTHYNGKFKGKATLTADKSTSTAYMELSSLTSEDSAVYFCSSSNWVGSYWGQGTLVTVSS VL: DVVMTQSPLSLPVTLGQPASISCKSSQSLLEEDGNTYLNWLQQRPGQSPRRLIYLVDRLDLGVPDRFSGSGSGTDFTLKISRVEAEDVGVYYCWQGSHLPQTFGGGTKVEIK	40.6	58.4	0.105	0.249	0.58	1.3	2.56	3	–
F54P mutant expressed as full length IgG4 antibody (antibody, V domains shown, Full length IgG4) VH: QVQLVQSGAELKKPGSSVKISCKSSGYAFSSQWMNWVKQRPGQGLEWIGQIYPEDGDTHMNGKFKTKATLTADKSTSTAYMELSSLTSEDSAVYFCSSSNWVGSYWGQGTLVTVSS VL: DVVMTQSPLSLPVTLGQPASISCKSSQSLLEEDGNTYLNWLQQRPGQSPRRLIYLVDRLDSGVPDRFSGSGSGTDFTLKISRVEAEDVGVYYCWQGTDLPQTFGGGTKVEIK	55.7	74.6	0.11	0.367	0.446	1.35	1.57	2.42	–
B23P scFv displayed on yeast (scFv, V domains shown, Aga2-anchored, VH-VL orientation; not shown: linker; SV5 tag) VH: QVQLVQSGAELKKPGSSVKISCKSSGYAFSSYYMNWVKQRPGQGLEWIGQIYPGDGDTHMNGKFKGKATLTADKSTSTAYMELSSLTSEDSAVYFCSSSNWVGSYWGQGTLVTVSS VL: DVVMTQSPLSLPVTLGQPASISCKSSQSLLESDGNTYLNWLQQRPGQSPRRLIYLVSRRDSGVPDRFSGSGSGTDFTLKISRVEAEDVGVYYCWQGTDLPQTFGGGTKVEIK	–	–	–	–	–	–	–	–	5.3
D14P mutant expressed as full length IgG4 antibody (antibody, V domains shown, Full length IgG4) VH: QVQLVQSGAELKKPGSSVKISCKSSGYAFSSQWMNWVKQRPGQGLEWIGQIYPGDDDTHYNDKFKGKATLTADKSTSTAYMELSSLTSEDSAVYFCSSSNWVGSYWGQGTLVTVSS VL: DVVMTQSPLSLPVTLGQPASISCKSSQSLLESDGNTYLNWLQQRPGQSPRRLIYLVDRLDLGVPDRFSGSGSGTDFTLKISRVEAEDVGVYYCWQGTDLPQTFGGGTKVEIK	46.8	48.8	0.137	0.266	0.861	1.81	2.53	3.15	–
D24P scFv displayed on yeast (scFv, V domains shown, Aga2-anchored, VH-VL orientation; not shown: linker; SV5 tag) VH: QVQLVQSGAELKKPGSSVKISCKSSGYAFSSQWMNWVKQRPGQGLEWIGQIYPEDGDTHYNGKFKGKATLTADKSTSTAYMELSSLTSEDSAVYFCSSSNWVGSYWGQGTLVTVSS VL: DVVMTQSPLSLPVTLGQPASISCKSSQSLLESDGNTYLNWLQQRPGQSPRRLIYLVSRLDIGVPDRFSGSGSGTDFTLKISRVEAEDVGVYYCWQGTDLPQTFGGGTKVEIK	–	–	–	–	–	–	–	–	14.4
D44P mutant expressed as full length IgG4 antibody (antibody, V domains shown, Full length IgG4) VH: QVQLVQSGAELKKPGSSVKISCKSSGYAFSSQWMNWVKQRPGQGLEWIGQIYPEDGDIHYNGKFKGKATLTADKSTSTAYMELSSLTSEDSAVYFCSSSNWVGSYWGQGTLVTVSS VL: DVVMTQSPLSLPVTLGQPASISCKSSQSLLEEDGNTYLNWLQQRPGQSPRRLIYLVDRLDSGVPDRFSGSGSGTDFTLKISRVEAEDVGVYYCWQGSHLPQTFGGGTKVEIK	42.2	58.5	0.0895	0.207	0.744	1.98	2.16	2.9	–
A44P scFv displayed on yeast (scFv, V domains shown, Aga2-anchored, VH-VL orientation; not shown: linker; SV5 tag) VH: QVQLVQSGAELKKPGSSVKISCKSSGYAFSSQWMNWVKQRPGQGLEWIGQIYPEDGDTHYNDKFKGKATLTADKSTSTAYMELSSLTSEDSAVYFCSSSNWVGSYWGQGTLVTVSS VL: DVVMTQSPLSLPVTLGQPASISCKSSQSLLESDGNTYLNWLQQRPGQSPRRLIYLVNRLDSGVPDRFSGSGSGTDFTLKISRVEAEDVGVYYCWQGTDLPQTFGGGTKVEIK	–	–	–	–	–	–	–	–	5.32
B34P scFv displayed on yeast (scFv, V domains shown, Aga2-anchored, VH-VL orientation; not shown: linker; SV5 tag) VH: QVQLVQSGAELKKPGSSVKISCKSSGYAFSSNWMNWVKQRPGQGLEWIGQIYPEDGDTHYNDKFKGKATLTADKSTSTAYMELSSLTSEDSAVYFCSSSNWVGSYWGQGTLVTVSS VL: DVVMTQSPLSLPVTLGQPASISCKSSQSLLESDGNTYLNWLQQRPGQSPRRLIYLVSRRDSGVPDRFSGSGSGTDFTLKISRVEAEDVGVYYCWQGTDLPQTFGGGTKVEIK	–	–	–	–	–	–	–	–	5.06
B53P scFv displayed on yeast (scFv, V domains shown, Aga2-anchored, VH-VL orientation; not shown: linker; SV5 tag) VH: QVQLVQSGAELKKPGSSVKISCKSSGYAFSSQWMNWVKQRPGQGLEWIGQIYPEDGDIHYNGKFKGKATLTADKSTSTAYMELSSLTSEDSAVYFCSSSNWVGSYWGQGTLVTVSS VL: DVVMTQSPLSLPVTLGQPASISCKSSQSLLESDGNTYLNWLQQRPGQSPRRLIYLVDRLDSGVPDRFSGSGSGTDFTLKISRVEAEDVGVYYCWQGTDLPQTFGGGTKVEIK	–	–	–	–	–	–	–	–	4.97

More lines, now with the values ahead:

CCL2 Expression as Percentage of Positive Control [1] [%]	TGFβ Expression as Percentage of Positive Control [1] [%]	absorbance at 0.1 ng/mL antibody [2] [absorbance]	absorbance at 0.5 ng/mL antibody [2] [absorbance]	absorbance at 1 ng/mL antibody [2] [absorbance]	absorbance at 5 ng/mL antibody [2] [absorbance]	absorbance at 100 ng/mL antibody [2] [absorbance]	absorbance at 1000 ng/mL antibody [2] [absorbance]	Kd [3] [nM]	Binder
59.1	59.5	0.098	0.127	0.446	1.11	2.43	2.81	–	B114P mutant expressed as full length IgG4 antibody (antibody, V domains shown, Full length IgG4) VH: QVQLVQSGAELKKPGSSVKISCKSSGYAFSSQWMNWVKQRPGQGLEWIGQIYPEDGDTHMNGKFKGKATLTADKSTSTAYMELSSLTSEDSAVYFCSSSNWDGSYWGQGTLVTVSS VL: DVVMTQSPLSLPVTLGQPASISCKSSQSLLEEDGNTYLNWLQQRPGQSPRRLIYLVDRLDSGVPDRFSGSGSGTDFTLKISRVEAEDVGVYYCWQGTDLPQTFGGGTKVEIK
56.2	77.1	0.204	0.537	0.597	1.42	1.81	2.32	–	H83P mutant expressed as full length IgG4 antibody (antibody, V domains shown, Full length IgG4) VH: QVQLVQSGAELKKPGSSVKISCKSSGYAFSSQWMNWVKQRPGQGLEWIGQIYPGDGDIHYNDKFKGKATLTADKSTSTAYMELSSLTSEDSAVYFCSSSNWVGSYWGQGTLVTVSS VL: DVVMTQSPLSLPVTLGQPASISCKSSQSLLESDGNTYLNWLQQRPGQSPRRLIYLVDRLDSGVPDRFSGSGSGTDFTLKISRVEAEDVGVYYCWQGTDLPQTFGGGTKVEIK
55.9	49.6	0.0985	0.183	0.629	1.32	2.4	2.76	–	B124P mutant expressed as full length IgG4 antibody (antibody, V domains shown, Full length IgG4) VH: QVQLVQSGAELKKPGSSVKISCKSSGYAFSSNWMNWVKQRPGQGLEWIGQIYPEDGDTHYNDKFKGKATLTADKSTSTAYMELSSLTSEDSAVYFCSSSNWVGSYWGQGTLVTVSS VL: DVVMTQSPLSLPVTLGQPASISCKSSQSLLEQDGNTYLNWLQQRPGQSPRRLIYLVDRLDSGVPDRFSGSGSGTDFTLKISRVEAEDVGVYYCWQGTDLPQTFGGGTKVEIK
–	–	–	–	–	–	–	–	6.38	D74P scFv displayed on yeast (scFv, V domains shown, Aga2-anchored, VH-VL orientation; not shown: linker; SV5 tag) VH: QVQLVQSGAELKKPGSSVKISCKSSGYAFSSQWMNWVKQRPGQGLEWIGQIYPGDNDTHYNDKFKGKATLTADKSTSTAYMELSSLTSEDSAVYFCSSSNWVGSYWGQGTLVTVSS VL: DVVMTQSPLSLPVTLGQPASISCKSSQSLLEADGNTYLNWLQQRPGQSPRRLIYLVDRLDSGVPDRFSGSGSGTDFTLKISRVEAEDVGVYYCWQGTDLPQTFGGGTKVEIK
–	–	–	–	–	–	–	–	8.07	D113P scFv displayed on yeast (scFv, V domains shown, Aga2-anchored, VH-VL orientation; not shown: linker; SV5 tag) VH: QVQLVQSGAELKKPGSSVKISCKSSGYAFSSQWMNWVKQRPGQGLEWIGQIYPGDGDTHMNGKFKGKATLTADKSTSTAYMELSSLTSEDSAVYFCSSSNWVGSYWGQGTLVTVSS VL: DVVMTQSPLSLPVTLGQPASISCKSSQSLLEGDGNTYLNWLQQRPGQSPRRLIYLVDRLDIGVPDRFSGSGSGTDFTLKISRVEAEDVGVYYCWQGTDLPQTFGGGTKVEIK
